The values below come from patent publication US20210008166A1 (SPECTRUM PHARMACEUTICALS, published 2021).

The target of test [1] is GLP-1R on CHO cells (CHO/GLP-1R). As to the kind of experiment: cell-based or functional assay.
The target in test [2] is T1, Chinese hamster ovary (CHO) cell-derived soluble recombinant human G-CSF receptor (R&D Systems, 381-050/CF) (human, UniProt Q99062 25-627).
T1 construct: extracellular domain; Bought and amine-coupled to a CM5 chip; also called soluble human G-CSF receptor
T1 sequence (looked up): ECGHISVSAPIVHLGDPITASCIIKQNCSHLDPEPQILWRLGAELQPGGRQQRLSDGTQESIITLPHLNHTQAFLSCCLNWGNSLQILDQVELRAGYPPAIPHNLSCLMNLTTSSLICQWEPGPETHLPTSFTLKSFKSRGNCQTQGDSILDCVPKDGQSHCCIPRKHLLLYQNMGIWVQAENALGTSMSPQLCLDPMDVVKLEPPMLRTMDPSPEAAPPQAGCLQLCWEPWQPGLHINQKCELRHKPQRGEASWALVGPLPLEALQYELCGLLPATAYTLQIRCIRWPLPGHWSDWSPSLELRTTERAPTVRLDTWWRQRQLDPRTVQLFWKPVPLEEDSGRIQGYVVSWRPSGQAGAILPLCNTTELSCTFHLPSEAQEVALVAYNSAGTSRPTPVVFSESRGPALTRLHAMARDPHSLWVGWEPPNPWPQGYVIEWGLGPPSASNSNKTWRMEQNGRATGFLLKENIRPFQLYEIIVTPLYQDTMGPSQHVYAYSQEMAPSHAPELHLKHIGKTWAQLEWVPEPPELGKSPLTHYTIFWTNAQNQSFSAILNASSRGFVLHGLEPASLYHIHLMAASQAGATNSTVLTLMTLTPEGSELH
As to the kind of experiment: SPR (BIAcore 3000), receptor amine-coupled to CM5 chip, analyte 6.25-100 nmol/L, 25 C, 1:1 Langmuir fit.
Excerpt: Surface plasmon resonance technology and the BIAcore 3000 biosensor (GE healthcare) were employed to measure in vitro binding affinity to the G-CSF receptor. Amine-coupling chemistry was used to immobilize the G-CSF receptor on CM5 biosensor chip. […] The CM5 sensor chip surface was activated by injecting a 1:1 mixture of 0.1 mol/L N-hydroxysuccinimide (GE healthcare) and 0.1 mol/L 3-(N,N-dimethylamino)propyl-N-ethylcarbodiamide (GE Healthcare). […] The chip surface was then blocked with ethanolamine/HCl (GE Healthcare), pH 8.5, and washed with a regeneration solution (50 mmol/L NaCl; 5 mmol/L NaOH). […] Binding affinity was calculated using the 1:1 Langmuir fitting model for each test material.

The target of test [3] is T2, Fc fragment of eflapegrastim (human, UniProt P01861 107-325 = IgG part, aglycosylated (manufactured from recombinant E. coli cells)).
T2 construct: Unconjugated Fc carrier tested alongside eflapegrastim; also called aglycosylated human IgG4 Fc fragment; immunoglobulin Fc region (IgG4)
As to the kind of experiment: ELISA with GST-FcγRIIB, anti-GST detection. As to the method:
For C1q, FcγRIIB, FcγRIIIA, and FcRn binding assays, serial dilutions of the test materials were added to 96-well microplates coated with C1q, or GST fusion proteins of FcγRIIB or FcγRIIIA, or FcRn αβ2. After incubation and washing, HRP-conjugated anti-C1q antibody was added for C1q binding assay, and rabbit-anti-GST antibody and HRP-conjugated anti-rabbit IgG antibody were sequentially added for FcγRIIB, FcγRIIIA, and FcRn binding assays. The absorbance was measured at 450 nm as described above for FcγRI binding assay.

T2 sequence (P01861 other isoform, or with tags, fused parts or gaps limits assumed): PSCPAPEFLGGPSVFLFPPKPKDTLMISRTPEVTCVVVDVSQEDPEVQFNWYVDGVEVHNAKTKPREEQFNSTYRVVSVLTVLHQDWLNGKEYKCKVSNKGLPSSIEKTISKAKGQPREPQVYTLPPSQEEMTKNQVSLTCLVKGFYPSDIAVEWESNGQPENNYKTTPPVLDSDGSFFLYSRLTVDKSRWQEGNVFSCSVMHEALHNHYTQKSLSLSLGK

“CA Exendin (lysine)-PEG-(N-terminus) Fc - Experimental group (Fc fusion)”: the potency relative to the isomer linked at another position of Fc in test [1] worked out at 6 times.
Consider “CA Exendin (lysine)-PEG-(lysine) Fc (Fc fusion)”, for which, in test [1], the % vs. Experimental group is 16.1% and the EC50 (ng/ml), in vitro activity worked out at 590 ng/mL.

B1: Pegfilgrastim (Neulasta) (ligand, UniProt P09919-2 31-204, looked up)
chain: TPLGPASSLPQSFLLKCLEQVRKIQGDGAALQEKLCATYKLCHPEELVLLGHSLGIPWAPLSSCPSQALQLAGCLSQLHSGLFLYQGLLQALEGISPELGPTLDTLQLDVADFATTIWQQMEELGMAPALQPTQGAMPAFASAFQRRAGGVLVASHLQSFLEVSYRVLRHLAQP
modifications: 20 kDa polyethylene glycol on the N-terminal methionine residue
notes: Commercial product
For the molecule B1, the Kd in test [2] stood at 2.9 nM.

B2: GST fusion protein of FcγRIIB (receptor, UniProt P31994 43-217, looked up)
chain: TPAAPPKAVLKLEPQWINVLQEDSVTLTCRGTHSPESDSIQWFHNGNLIPTHTQPSYRFKANNNDSGEYTCQTGQTSLSDPVHLTVLSEWLVLQTPHLEFQEGETIVLRCHSWKDKPLVKVTFFQNGKSKKFSRSDPNFSIPQANHSHSGDYHCTGNIGYTLYSSKPVTITVQAP
notes: not shown: GST
Consider B2, for which the binding result in test [3] is given as “no binding”.
